To fix the notation:
B1: ATGL (PNPLA2, patatin-like phospholipase domain-containing protein 2), human, full length / CGI-58 (ABHD5, 1-acylglycerol-3-phosphate O-acyltransferase ABHD5), human (parent)
chain 1: MFPREKTWNISFAGCGFLGVYYVGVASCLREHAPFLVANATHIYGASAGALTATALVTGVCLGEAGAKFIEVSKEARKRFLGPLHPSFNLVKIIRSFLLKVLPADSHEHASGRLGISLTRVSDGENVIISHFNSKDELIQANVCSGFIPVYCGLIPPSLQGVRYVDGGISDNLPLYELKNTITVSPFSGESDICPQDSSTNIHELRVTNTSIQFNLRNLYRLSKALFPPEPLVLREMCKQGYRDGLRFLQRNGLLNRPNPLLALPPARPHGPEDKDQAVESAQAEDYSQLPGEDHILEHLPARLNEALLEACVEPTDLLTTLSNMLPVRLATAMMVPYTLPLESALSFTIRLLEWLPDVPEDIRWMKEQTGSICQYLVMRAKRKLGRHLPSRLPEQVELRRVQSLPSVPLSCAAYREALPGWMRNNLSLGDALAKWEECQRQLLLGLFCTNVAFPPEALRMRAPADPAPAPADPASPQHQLAGPAPLLSTPAPEARPVIGALGL
chain 2: MAAEEEEVDSADTGERSGWLTGWLPTWCPTSISHLKEAEEKMLKCVPCTYKKEPVRISNGNKIWTLKFSHNISNKTPLVLLHGFGGGLGLWALNFGDLCTNRPVYAFDLLGFGRSSRPRFDSDAEEVENQFVESIEEWRCALGLDKMILLGHNLGGFLAAAYSLKYPSRVNHLILVEPWGFPERPDLADQDRPIPVWIRALGAALTPFNPLAGLRIAGPFGLSLVQRLRPDFKRKYSSMFEDDTVTEYIYHCNVQTPSGETAFKNMTIPYGWAKRPMLQRIGKMHPDIPVSVIFGARSCIDGNSGTSIQSLRPHSYVKTIAILGAGHYVYADQPEEFNQKVKEICDTVD
B2: ATGL (PNPLA2, patatin-like phospholipase domain-containing protein 2), human, full length / perilipin-5, mouse (mPlin5) (parent)
chain 1: B1 chain 1
chain 2: MDQRGEDTTLAPHSRMSGDQTAQDPGSSLGELDQQNVVNRVVALPLVKATCTAVSSAYNSAKDRHPLLGSACRLAEHCVCSVTTCALDHAQPLLEHLQPQLATVNDLACRGLDKLEEKLPFLQQPSDMVVTSAKDTVAKSVTGMVDLAQRGRRWSGELRRSMSQAMDMVLGKSEKLVDRFLPMTEAELAVLAAEAEGPEVGTVEEQRQQQGYFVRLGSLSARLRHLAYEHSLGKLRQSKHRTQEMLAQLQETLELIQHMQRGASPSPTFHPPKTQELWGSWSPCLENGRSHSEVELETLALSRSLTLELQNAVDALAGCVRGLPPSAQAKVAEVQRSVDALQATFADAHCLGDVAPTALAEGRGSVARAHACVDEFLDLVLRAMPLPWLVGPFAPILVEQSEPLINLATCVDEVVGDPDPRWAHMDWPAQKRAWEAESADPGGQEAEPPRGQGKHTMMPELDF

The first assay covers variants of B1. Description: LUMIER: Protein A-ATGL variant and firefly luciferase-partner co-expressed in HEK293T, lysates immunoprecipitated on IgG-coated plates, co-precipitated partner measured as luciferase luminescence. Particulars: with CGI-58 (ABHD5, 1-acylglycerol-3-phosphate O-acyltransferase ABHD5), transient co-transfection, IgG-coated LUMITRAC plates, 2 h at 4 °C, three PBS washes, Bright-Glo luciferase reagent, triplicates per assay, two …, parent: 0.32, not graded, scale: log2 fold change of co-immunoprecipitated luminescence relative to wild-type ATGL within each experiment.
chain 1 P103K: the screen value was -0.089.
The same measure, in the same setting: to chain 1 A104E belongs 0.291.
Still for that read-out and setting: with chain 1 R95L the figure was -0.121; with chain 1 R95K, 0.177; with chain 1 K92L, -0.67.
On the same count and under the same terms, to chain 1 P156K belongs -0.794; to chain 1 F348E, -0.83; to chain 1 T41A, 0.269.
For chain 1 H109E, the screen value came to 0.0522.
For chain 1 K275A, the screen value is -0.731.
Same read-out and setting: to chain 1 R163K belongs 0.351.
Take chain 1 Q396A: the screen value is -0.502.
Same read-out and setting: with chain 1 L159A the figure was -0.737.
Take chain 1 R329E: the screen value is -0.412.
Still for that read-out and setting: to chain 1 G59L belongs -0.404; to chain 1 S87A, -0.244.
Turning to chain 1 S87E, the screen value is -0.0233.

Staying with this assay, now noted: with CGI-58 (ABHD5, 1-acylglycerol-3-phosphate O-acyltransferase ABHD5), transient co-transfection, IgG-coated LUMITRAC plates, 2 h at 4 °C, three PBS washes, Bright-Glo luciferase reagent, triplicates per assay, two …, parent: 0.45, not graded, scale: log2 fold change of co-immunoprecipitated luminescence relative to wild-type ATGL within each experiment.
As to chain 1 P103K, the screen value came out at 0.0251.
On to chain 1 A104E, for which the screen value worked out at 0.0407.
On the same count and under the same terms, to chain 1 R95L belongs -0.396; to chain 1 R95K, -0.0705; to chain 1 K92L, -0.328.
On the same count and under the same terms, with chain 1 P156K the figure was -0.596; with chain 1 F348E, -1.02.
Still for that read-out and setting: with chain 1 T41A the figure was 0.283.
Take chain 1 H109E: the screen value was -0.021.
On the same count and under the same terms, to chain 1 K275A belongs -0.473.
Same read-out and setting: with chain 1 R163K the figure was 0.226.
On the same count and under the same terms, with chain 1 Q396A the figure was -0.818; with chain 1 L159A, -0.542.
On to chain 1 N180L, for which the screen value is -0.679.
Still for that read-out and setting: to chain 1 R329E belongs -0.601; to chain 1 G59L, -0.665; to chain 1 S87A, -0.0566.
On the same count and under the same terms, to chain 1 S87E belongs -0.304.

The assay is the same for the next values; noted with them: with CGI-58 (ABHD5, 1-acylglycerol-3-phosphate O-acyltransferase ABHD5), transient co-transfection, IgG-coated LUMITRAC plates, 2 h at 4 °C, three PBS washes, Bright-Glo luciferase reagent, triplicates per assay, two …, parent: 0.32, not graded, value at the no-binding floor (a bound), scale: log2 fold change of co-immunoprecipitated luminescence relative to wild-type ATGL within each experiment.
Turning to chain 1 N180L, the screen value was -1.8.

A further assay covers variants of B2. Described as above. Particulars: with perilipin-5, mouse (mPlin5), transient co-transfection, IgG-coated LUMITRAC plates, 2 h at 4 °C, three PBS washes, Bright-Glo luciferase reagent, triplicates per assay, two …, parent: 0.15, not graded, scale: log2 fold change of co-immunoprecipitated luminescence relative to wild-type ATGL within each experiment.
Turning to chain 1 L62K, the screen value is -0.0604.
For the variant chain 1 L62A, the screen value is -0.2.
Still for that read-out and setting: with chain 1 L102K the figure was -0.208; with chain 1 P103K, -0.303.
For the variant chain 1 R351L, the screen value was -0.213.
Consider chain 1 R95K, for which the screen value came out at 0.211.
Still for that read-out and setting: to chain 1 R95L belongs -0.404.
On the same count and under the same terms, to chain 1 Y415A belongs 0.184.
On the same count and under the same terms, to chain 1 N39E belongs -0.463.
With chain 1 T41A, the screen value was 0.0372.
Same read-out and setting: with chain 1 K92L the figure was 0.0605; with chain 1 R113K, 0.649; with chain 1 R113L, -0.305.
On the same count and under the same terms, with chain 1 H109E the figure was 0.319.
On the same count and under the same terms, with chain 1 L261E the figure was -0.706.
With chain 1 V328A, the screen value is -0.912.
Still for that read-out and setting: with chain 1 A104E the figure was -0.161; with chain 1 V127L, -0.294; with chain 1 G66A, -0.448.
Same read-out and setting: to chain 1 G66L belongs -0.614; to chain 1 G59L, -0.841; to chain 1 K275A, -0.0642.
chain 1 S106K: the screen value is -0.363.
On the same count and under the same terms, with chain 1 L178A the figure was -0.0602; with chain 1 A434L, 0.18.
chain 1 P86K: the screen value is -1.17.
For the variant chain 1 S87E, the screen value is -0.403.
On the same count and under the same terms, to chain 1 S87A belongs -0.249; to chain 1 N180L, -0.751; to chain 1 E368A, -0.0206.
Same read-out and setting: to chain 1 P258L belongs -0.695.
With chain 1 F348E, the screen value is 0.152.
The same measure, in the same setting: to chain 1 R329E belongs 0.105; to chain 1 S158E, -0.0461; to chain 1 S158A, -0.0252.
The same measure, in the same setting: to chain 1 Q396A belongs -0.512.
The same measure, in the same setting: with chain 1 I70A the figure was -1.37; with chain 1 I70K, -0.962.
On to chain 1 Q140K, for which the screen value was found to be 0.011.
As for chain 1 Q140A, the screen value is -0.185.

Still in this assay, the particulars now being: with perilipin-5, mouse (mPlin5), transient co-transfection, IgG-coated LUMITRAC plates, 2 h at 4 °C, three PBS washes, Bright-Glo luciferase reagent, triplicates per assay, two …, parent: 0.46, not graded, scale: log2 fold change of co-immunoprecipitated luminescence relative to wild-type ATGL within each experiment.
In the case of chain 1 L62K, the screen value came out at 0.482.
For chain 1 L62A, the screen value is -0.0199.
Same read-out and setting: to chain 1 L102K belongs -0.846; to chain 1 P103K, -0.674.
Take chain 1 R351L: the screen value is -0.456.
Still for that read-out and setting: with chain 1 R95K the figure was -0.228; with chain 1 R95L, -0.391.
On the same count and under the same terms, with chain 1 Y415A the figure was 0.247; with chain 1 N39E, -0.463; with chain 1 T41A, 0.0895.
Same read-out and setting: with chain 1 K92L the figure was 0.185; with chain 1 R113K, 0.667.
As for chain 1 R113L, the screen value turned out to be 0.191.
The same measure, in the same setting: to chain 1 H109E belongs -0.248; to chain 1 L261E, -0.846.
Turning to chain 1 V328A, the screen value is -0.985.
Still for that read-out and setting: to chain 1 A104E belongs -0.459; to chain 1 V127L, -0.0973; to chain 1 G66A, 0.0231.
Still for that read-out and setting: to chain 1 G66L belongs -0.664; to chain 1 G59L, -0.187; to chain 1 K275A, -0.483.
Same read-out and setting: to chain 1 S106K belongs -0.539; to chain 1 L178A, -0.257; to chain 1 A434L, 0.786.
Take chain 1 P86K: the screen value is -1.16.
Still for that read-out and setting: to chain 1 S87E belongs -0.318; to chain 1 S87A, -0.228.
On to chain 1 N180L, for which the screen value was -0.918.
Consider chain 1 E368A, for which the screen value is -0.0325.
Same read-out and setting: to chain 1 P258L belongs -1.24; to chain 1 F348E, -0.58.
As for chain 1 R329E, the screen value is -0.51.
Same read-out and setting: to chain 1 S158E belongs 0.172; to chain 1 S158A, 0.0162; to chain 1 Q396A, -0.623.
Still for that read-out and setting: to chain 1 I70A belongs -0.876.
Still for that read-out and setting: to chain 1 I70K belongs -0.924; to chain 1 Q140K, -0.224; to chain 1 Q140A, -0.0429.

Values taken from publication PMC10958042.
